This is an account of results in publication doi:10.1101/2021.01.29.428852 (bioRxiv, 2021).

In the assay the target is LCMV clone 13 nucleocapsid protein (NP), purified recombinant (Lymphocytic choriomeningitis virus, …, UniProt P09992, strain). Put plainly: ELISA.

B1: most expanded antibody variant of the NP-specific, second most expanded IgG clone (antibody, V domains shown)
VH: EVQLQQSGPELVKPGASVKMSCKASGYTFTDYNMHWVKQSHGKSLEWIGYINPNNGGTSYNQKFKGKATLTVNKSSSTAYMELRSLTSEDSAVYYCAREGGYWYFDVWGTGTTVTVSS
VL: DIVMTQSHKFMSTSVGDRVSITCKASQDVSTAVAWYQQKPGQSPKLLIYWASTRHTGVPDRFTGSGSGTDYTLTISSVQAEDLALYYCQQHYSTPFTFGSGTKLEIK
Consider B1, for which the binding result is “binds”.
